Data as given in article PMC4398755, “Cloning and expressing a highly functional and substrate specific farnesoic acid o-methyltransferase from the Asian citrus psyllid (Diaphorina citri Kuwayama)” (FEBS Open Bio, 2015).

T1: DcFA-o-MT (Diaphorina citri, UniProt A0A075W3Z0)
T1 sequence (A0A075W3Z0 1-272): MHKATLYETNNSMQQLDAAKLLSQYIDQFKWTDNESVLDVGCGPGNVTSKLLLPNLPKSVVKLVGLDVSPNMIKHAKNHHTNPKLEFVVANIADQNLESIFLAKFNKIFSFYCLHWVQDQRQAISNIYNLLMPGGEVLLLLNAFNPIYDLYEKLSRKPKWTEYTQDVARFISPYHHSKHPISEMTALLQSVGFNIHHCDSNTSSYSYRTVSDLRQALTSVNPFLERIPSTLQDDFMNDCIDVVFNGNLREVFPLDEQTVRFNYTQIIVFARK

B1: DcFA-o-MT (Diaphorina citri) (protein)
chain: T1 sequence (A0A075W3Z0 1-272)

What was measured:
Assay in all cases: radiometric [3H]SAM methyl transfer, RP-HPLC / rapid biphasic separation
DcFA-o-MT = target: T1, DcFA-o-MT; type: biochemical; details: 10 μM SAM (saturating), 50 mM Tris-HCl pH 7.9, 25 °C, 30 min; no metal added; 357 pmol enzyme in 100 μL, well above Km; substrate 1-20 μM
Source text: (§1) radiometric [3H]SAM methyl transfer, RP-HPLC / rapid biphasic separation on DcFA-o-MT

[1] = substrate: CC/C(=C\CC/C(C)=C\C(=O)O)CCC1OC1(C)CC; type: biochemical, Diaphorina citri; details: 10 μM SAM (saturating), 50 mM Tris-HCl pH 7.9, 25 °C, 30 min, no metal added, 357 pmol enzyme in 100 μL, well above Km, substrate 1-20 μM, printed kcat/Km 143.4 does not match the printed Km and kcat
Source text: as §1

[2] = substrate: C/C(=C\C(=O)O)CC/C=C(\C)CC[C@H]1OC1(C)C; type: biochemical, Diaphorina citri; details: 10 μM SAM (saturating), 50 mM Tris-HCl pH 7.9, 25 °C, 30 min, no metal added, 357 pmol enzyme in 100 μL, well above Km, substrate 1-20 μM
Source text: as §1

[3] = substrate: CC/C(=C/CC/C(C)=C/C(=O)O)CCC1OC1(C)CC; type: biochemical, Diaphorina citri; details: 10 μM SAM (saturating), 50 mM Tris-HCl pH 7.9, 25 °C, 30 min, no metal added, 357 pmol enzyme in 100 μL, well above Km, substrate 1-20 μM, error exceeds value, text b19 says Km is 100-fold that of FA,
Source text: as §1

[4] = substrate: CC(C)=CCC/C(C)=C/CC/C(C)=C/C(=O)O; type: biochemical, Diaphorina citri; details: 10 μM SAM (saturating), 50 mM Tris-HCl pH 7.9, 25 °C, 30 min, no metal added, 357 pmol enzyme in 100 μL, well above Km, substrate 1-20 μM
Source text: as §1

Molecule	Km (DcFA-o-MT)	Km [1]	Vmax [1]	Km [2]	Vmax [2]	kcat [2]	kcat/Km [2]	Km [3]	Vmax [3]	kcat/Km [3]	Km [4]	Vmax [4]	kcat [4]	kcat/Km [4]
homoFA	20 ± 10 nM													
B1		5.65 ± 0.83 µM	1.75e-06 µmol/min	2.53 ± 0.72 µM	2.8e-07 µmol/min	1.3e-05 ± 2e-06 s⁻¹	5.14 M⁻¹ s⁻¹	4.58 ± 4.82 µM	5e-08 µmol/min	0.66 M⁻¹ s⁻¹	0.46 ± 0.05 µM	1.61e-05 µmol/min	0.00075 ± 3e-05 s⁻¹	1640 M⁻¹ s⁻¹
